Experimental data as given in the supplement of paper PMC5998384.

Experiments:
HeLa Kyoto [1] = assay: solubility in G1/S (NP-40 vs SDS abundance) (log2 ratio); higher = more soluble; conditions: cell cycle stage: G1/S
HeLa Kyoto [2] = assay: solubility change mitosis vs G1/S (difference of NP-40 vs SDS log2 ratios) (log2 ratio difference); higher = more soluble in mitosis
HeLa Kyoto [3] = assay: melting temperature (median over replicates), in situ; higher = more thermally stable
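Wherever melting temperature (median over replicates), in situ is given: HeLa Kyoto cells synchronized by double thymidine or nocodazole block, proteins quantified by TMT10plex mass spectrometry, three independent biological replicates.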
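Wherever solubility change mitosis vs G1/S (difference of NP-40 vs SDS log2 ratios) is given: synchronized HeLa Kyoto cells (double thymidine block for G1/S, nocodazole release for mitosis), protein amounts in NP-40 versus SDS lysates quantified by mass spectrometry, three biological replicates.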
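Wherever solubility in G1/S (NP-40 vs SDS abundance) is given: HeLa Kyoto cells arrested at G1/S by double thymidine block, proteins quantified by TMT10plex mass spectrometry in mild NP-40 versus SDS extracts, three biological replicates.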

Chain of MARK1 (chain, as listed by the source): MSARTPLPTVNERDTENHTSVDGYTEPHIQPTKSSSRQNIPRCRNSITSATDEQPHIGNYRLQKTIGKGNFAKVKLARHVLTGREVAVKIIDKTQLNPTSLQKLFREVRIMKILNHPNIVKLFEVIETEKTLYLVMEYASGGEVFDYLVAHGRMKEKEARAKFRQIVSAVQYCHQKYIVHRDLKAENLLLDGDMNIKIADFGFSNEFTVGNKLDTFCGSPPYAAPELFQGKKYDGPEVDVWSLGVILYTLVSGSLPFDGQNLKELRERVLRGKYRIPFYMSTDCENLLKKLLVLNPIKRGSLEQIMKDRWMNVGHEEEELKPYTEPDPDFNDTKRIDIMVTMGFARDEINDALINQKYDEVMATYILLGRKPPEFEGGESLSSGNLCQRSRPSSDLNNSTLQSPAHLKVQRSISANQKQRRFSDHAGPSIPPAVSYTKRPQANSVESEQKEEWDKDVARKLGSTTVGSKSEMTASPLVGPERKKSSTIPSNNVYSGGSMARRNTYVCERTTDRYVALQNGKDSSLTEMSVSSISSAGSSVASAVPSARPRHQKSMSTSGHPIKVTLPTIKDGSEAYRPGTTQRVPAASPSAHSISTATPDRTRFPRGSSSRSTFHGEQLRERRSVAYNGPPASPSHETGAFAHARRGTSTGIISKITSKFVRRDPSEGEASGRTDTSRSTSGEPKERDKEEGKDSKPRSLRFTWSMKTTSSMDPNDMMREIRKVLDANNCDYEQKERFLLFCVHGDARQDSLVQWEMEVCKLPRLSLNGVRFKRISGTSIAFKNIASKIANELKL

Substance | solubility in G1/S (log2) (HeLa Kyoto [1]) | solubility change mitosis (log2) (HeLa Kyoto [2]) | melting temperature (HeLa Kyoto [3]; cell cycle stage: G1/S) [°C] | melting temperature (HeLa Kyoto [3]; cell cycle stage: mitosis) [°C]
MVMYARKQQRLSDGCHDRRGDSQPYQALKYSSKSHPSSGDHRHEKMRDAGDPSPPNKMLRRSDSPENKYSDSTGHSKAKNVHTHRVRERDGGTSYSPQENSHNHSALHSSNSHSSNPSNNPSKTSDAPYDSADDWSEHISSSGKKYYYNCRTEVSQWEKPKEWLEREQRQKEANKMAVNSFPKDRDYRREVMQATATSGFASGMEDKHSSDASSLLPQNILSQTSRHNDRDYRLPRAETHSSSTPVQHPIKPVVHPTATPSTVPSSPFTLQSDHQPKKSFDANGASTLSKLPTPTSSVPAQKTERKESTSGDKPVSHSCTTPSTSSASGLNPTSAPPTSASAVPVSPVPQSPIPPLLQDPNLLRQLLPALQATLQLNNSNVDISKINEVLTAAVTQASLQSIIHKFLTAGPSAFNITSLISQAAQLSTQAQPSNQSPMSLTSDASSPRSYVSPRISTPQTNTVPIKPLISTPPVSSQPKVSTPVVKQGPVSQSATQQPVTADKQQGHEPVSPRSLQRSSSQRSPSPGPNHTSNSSNASNATVVPQNSSARSTCSLTPALAAHFSENLIKHVQGWPADHAEKQASRLREEAHNMGTIHMSEICTELKNLRSLVRVCEIQATLREQRILFLRQQIKELEKLKNQNSFMV [WAC] | 0.525 | 0.139 | 46.5 | 49.9
MARK1 | -0.155 | -0.0417 |  | 49
MDEERALYIVRAGEAGAIERVLRDYSDKHRATFKFESTDEDKRKKLCEGIFKVLIKDIPTTCQVSCLEVLRILSRDKKVLVPVTTKENMQILLRLAKLNELDDSLEKVSEFPVIVESLKCLCNIVFNSQMAQQLSLELNLAAKLCNLLRKCKDRKFINDIKCFDLRLLFLLSLLHTDIRSQLRYELQGLPLLTQILESAFSIKWTDEYESAIDHNGPPLSPQETDCAIEALKALFNVTVDSWKVHKESDSHQFRVMAAVLRHCLLIVGPTEDKTEELHSNAVNLLSNVPVSCLDVLICPLTHEETAQEATTLDELPSNKTAEKETVLKNNTMVYNGMNMEAIHVLLNFMEKRIDKGSSYREGLTPVLSLLTECSRAHRNIRKFLKDQVLPPLRDVTNRPEVGSTVRNKLVRLMTHVDLGVKQIAAEFLFVLCKERVDSLLKYTGYGNAAGLLAARGLLAGGRGDNWYSEDEDTDTEEYKNAKPKEELLKPMGLKPDGTITPLEEALNQYSVIEETSSDTD [RIC8B] | -0.00976 | -0.194 | 49.4 | 49.8
MDDKAFTKELDQWVEQLNECKQLNENQVRTLCEKAKEILTKESNVQEVRCPVTVCGDVHGQFHDLMELFRIGGKSPDTNYLFMGDYVDRGYYSVETVTLLVALKVRYPERITILRGNHESRQITQVYGFYDECLRKYGNANVWKYFTDLFDYLPLTALVDGQIFCLHGGLSPSIDTLDHIRALDRLQEVPHEGPMCDLLWSDPDDRGGWGISPRGAGYTFGQDISETFNHANGLTLVSRAHQLVMEGYNWCHDRNVVTIFSAPNYCYRCGNQAAIMELDDTLKYSFLQFDPAPRRGEPHVTRRTPDYFL [PPP2CB] | 0.0545 | -0.00731 | 45.7 | 54.8
ATG2B | -0.312 | 0.00813 |  | 53.4
MPLRKMKIPFLLLFFLWEAESHAASRPNIILVMADDLGIGDPGCYGNKTIRTPNIDRLASGGVKLTQHLAASPLCTPSRAAFMTGRYPVRSGMASWSRTGVFLFTASSGGLPTDEITFAKLLKDQGYSTALIGKWHLGMSCHSKTDFCHHPLHHGFNYFYGISLTNLRDCKPGEGSVFTTGFKRLVFLPLQIVGVTLLTLAALNCLGLLHVPLGVFFSLLFLAALILTLFLGFLHYFRPLNCFMMRNYEIIQQPMSYDNLTQRLTVEAAQFIQRNTETPFLLVLSYLHVHTALFSSKDFAGKSQHGVYGDAVEEMDWSVGQILNLLDELRLANDTLIYFTSDQGAHVEEVSSKGEIHGGSNGIYKGGKANNWEGGIRVPGILRWPRVIQAGQKIDEPTSNMDIFPTVAKLAGAPLPEDRIIDGRDLMPLLEGKSQRSDHEFLFHYCNAYLNAVRWHPQNSTSIWKAFFFTPNFNPVGSNGCFATHVCFCFGSYVTHHDPPLLFDISKDPRERNPLTPASEPRFYEILKVMQEAADRHTQTLPEVPDQFSWNNFLWKPWLQLCCPSTGLSCQCDREKQDKRLSR | 0.0818 | -0.0688 | 55.8 | 55.3
